{"source": "paper PMC5752668", "about": "(Nature Communications, 2018)", "molecules": {"B1": {"name": "GtgE_(FL,C45A) (full-length catalytically inactive GtgE, residues 1-228) (enzyme)", "chain": "MLRHIQNSLGSVYRSNTATPQGQIIHHRNFQSQFDTTGNTLYNNAWVCSLNVIKSRDGNNYSALEDITSDNQAFNNILEGIDIIECENLLKEMNVQKIPESSLFTNIKEALQAEVFNSTVEDDFESFISYELQNHGPLMLIRPSLGSECLHAECIVGYDSEVKKVLIYDSMNTSPEWQSNIDVYDKLTLAFNDKYKNEDCSICGLYYDGVYEPKPLHSSSWKDWCTIL", "notes": "source: E. coli BL21(DE3)-RIL, purified (Ni-IMAC, TEV cleavage, second IMAC)"}, "B2": {"name": "Rab32_(18-201):GDP (truncated Rab32, lysine-methylated, for crystallization) (domain or fragment)", "chain": "APETREHLFKVLVIGELGVGKTSIIKRYVHQLFSQHYRATIGVDFALKVLNWDSRTLVRLQLWDIAGQERFGNMTRVYYKEAVGAFVVFDISRSSTFEAVLKWKSDLDSKVHLPNGSPIPAVLLANKCDQNKDSSQSPSQVDQFCKEHGFAGWFETSAKDNINIEEAARFLVEKILVNHQSFPN", "notes": "source: E. coli BL21(DE3)-RIL, purified; complex reductively methylated"}, "B3": {"name": "Rab32FL:GDP (full-length Rab32, residues 1-225, GDP-bound) (natural protein)", "chain": "MAGGGAGDPGLGAAAAPAPETREHLFKVLVIGELGVGKTSIIKRYVHQLFSQHYRATIGVDFALKVLNWDSRTLVRLQLWDIAGQERFGNMTRVYYKEAVGAFVVFDISRSSTFEAVLKWKSDLDSKVHLPNGSPIPAVLLANKCDQNKDSSQSPSQVDQFCKEHGFAGWFETSAKDNINIEEAARFLVEKILVNHQSFPNEENDVDKIKLDQETLRAENKSQCC", "notes": "also called Rab32:GDP; Rab32_(1-225); source: E. coli BL21(DE3)-RIL, purified (Ni-IMAC, TEV cleavage, second IMAC, SEC)"}, "B4": {"name": "Rab32FL-Atto488 (Rab32:GDP labelled at thiol groups with Atto488-Maleimide) (natural protein)", "chain": "B3 chain", "modifications": "thiol groups covalently labeled with Atto488-Maleimide", "notes": "also called Rab32:GDP_(fluor.); fluorescently labeled Rab32FL:GDP; source: E. coli BL21(DE3)-RIL, purified, then labelled with Atto488-Maleimide"}}, "key": {"[1]": {"biological_target": "T1, Rab32_1-225:GDP:GtgE1-228,C45A complex (Homo sapiens, UniProt Q13637)", "T1 construct": "gene RAB32; full-length Rab32 and full-length GtgE C45A, E. coli, His6-MBP tag cut by TEV, reductively lysine-methylated complex, 1:1 heterodimer; with Cysteine protease GtgE (Salmonella enterica serovar Typhimurium SL1344)", "T1 sequence (Q6EAT3 entry or part of it C45A, one chain of several)": "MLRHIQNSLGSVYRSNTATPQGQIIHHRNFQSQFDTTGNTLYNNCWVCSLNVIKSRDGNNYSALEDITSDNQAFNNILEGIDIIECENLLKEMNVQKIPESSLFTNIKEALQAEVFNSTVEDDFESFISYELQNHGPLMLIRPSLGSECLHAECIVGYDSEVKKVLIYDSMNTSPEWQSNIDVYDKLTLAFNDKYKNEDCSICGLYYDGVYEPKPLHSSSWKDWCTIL", "test": "X-ray crystallography, […] Å", "assay_type": "binding", "conditions": "nucleotide site of Rab32; crystals from 0.05 M imidazole pH 8, 20% PEG 6000"}, "Rab32FL": {"biological_target": "T2, Rab32FL (Homo sapiens, UniProt Q13637)", "T2 construct": "gene RAB32; full length, E. coli, N-terminal His6-MBP tag cut by TEV, monomer by SEC", "T2 sequence (Q13637 1-225)": "B3 chain", "test": "intrinsic GTP hydrolysis, ion-pairing RP-HPLC of nucleotide content", "assay_type": "biochemical", "conditions": "intrinsic GTPase, no GAP; single-exponential fit"}, "[2]": {"biological_target": "B3", "test": "ITC", "conditions": "both partners purified"}, "[3]": {"biological_target": "T3, GtgE_(21-214,C45A) (truncated inactive GtgE, lysine-methylated, for crystallization) (Salmonella enterica serovar Typhimurium …, UniProt Q6EAT3 21-214, C45A, surface exposed lysine residues reductively methylated)", "T3 construct": "source: E. coli BL21(DE3)-RIL, purified; complex reductively methylated", "T3 sequence": "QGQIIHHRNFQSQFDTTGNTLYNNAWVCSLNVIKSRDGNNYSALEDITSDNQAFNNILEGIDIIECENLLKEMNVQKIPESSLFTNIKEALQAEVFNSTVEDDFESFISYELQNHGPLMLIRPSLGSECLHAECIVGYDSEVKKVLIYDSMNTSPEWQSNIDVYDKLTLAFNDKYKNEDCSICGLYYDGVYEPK", "test": "crystal structure", "conditions": "both partners purified"}, "[4]": {"biological_target": "B1", "test": "ITC", "conditions": "both partners purified"}, "[5]": {"biological_target": "B1", "test": "AUC", "conditions": "both partners purified"}}, "data": [{"molecule": "Nc1nc2c(ncn2[C@@H]2O[C@H](COP(=O)(O)OP(=O)(O)O)[C@@H](O)[C@H]2O)c(=O)[nH]1", "note": "[GDP]", "values": [{"measurement": "X-ray crystallography, 2.9 Å", "setting": "[1]", "value": "The full-length Rab32:GDP:GtgEC45A structure was solved by molecular replacement"}]}, {"molecule": "Nc1nc2c(ncn2[C@@H]2O[C@H](COP(=O)(O)OP(=O)(O)OP(=O)(O)O)[C@@H](O)[C@H]2O)c(=O)[nH]1", "note": "[GTP]", "values": [{"measurement": "k hydr", "setting": "Rab32FL", "value": "Rab32 has an exceptionally slow intrinsic GTPase-activity with an hydrolysis constant determined"}]}, {"molecule": "B1", "values": [{"measurement": "stoichiometry N", "setting": "[2]", "value": 1}]}, {"molecule": "B2", "values": [{"measurement": "binding result", "setting": "[3]", "value": "binds"}]}, {"molecule": "B3", "values": [{"measurement": "Kd", "setting": "[4]", "value": 96, "unit": "nM"}]}, {"molecule": "B4", "values": [{"measurement": "Kd", "setting": "[5]", "value": 118, "unit": "nM"}]}]}
